Results reported in US11078259B2, “Methods and compositions for promoting thermogenic potential” (Joslin Diabetes Center, Inc., priority 2015, dated 2021).

What was measured:
Type in all cases: cell-based, human
[1] = system: hWAT-SVF clones; experiment: Clonal analysis: UCP1-luciferase response to BMP7 pretreatment; details: for clones UCP1(+), BMP7 Resp(+) / clones UCP1 (−), BMP7 Resp(+) / clones UCP1(−), BMP7 Resp(−): hWAT-SVF clones
Procedure: (§1) FIG. 8 depicts clonal analysis of human brown and white fat progenitors. Specifically, the strategy of clonal analysis of hWAT-SVF and hBAT-SVF progenitors is shown as a dendrogram. 152 clones from hWAT-SVF and 128 clones from hBAT-SVF were derived by limiting dilution from 4 subjects. Adipogenic capacity was determined by Nile red staining and UCP1 level was determined by luciferase activity on day 18. Detailed selection criteria are described in FIGS. 9 and 10. Selected highly adipogenic clones (adipogenic++) were pre-treated with 3.3 nM BMP7 for 6 days and then differentiated into mature adipocytes in a 96-well plate. Luciferase activity was measured on day 18 and divided into different levels (negative, Neg; low; medium, Med; high) after normalized to protein content. The positive response (+) to BMP7 pretreatment was defined by more than 1.5-fold increase of luciferase activity between BMP7-pretreated and vehicle groups.
(§2) Immortalized progenitor cells were plated and grown in DMEM/H medium supplemented with 10% FBS (day 0). For adipocyte differentiation, cell were grown for 6 days until reaching confluence (day 6), and then treated with the adipogenic induction medium as described above for 12 days (termed as day 18). To further stimulate thermogenic program, fully differentiated cells were incubated with 10 μM forskolin for 4 h. For BMPs and FGF21 pre-treatment, recombinant BMP7 (3.3 nM), BMP8 (3.3 nM), or FGF21 (50 nM) were added to undifferentiated cells in medium containing insulin (0.5 μM), T3 (2 nM) and 2% FBS for 6 days followed by adipogenic induction for 12 days. For BMPs and FGF21 post-treatment, fully differentiated adipocytes at day 18 were treated with recombinant BMP7 (3.3 nM), BMP8 (3.3 nM), or FGF21 (50 nM) in medium containing insulin (0.5 μM), T3 (2 nM) and 2% FBS for 2 days.
(§3) In vitro luciferase assays were performed using luciferase assay kits (Promega, Madison, Wis.) according to the manufacturer's instructions. Remove culture medium from differentiated adipocytes and wash cells in PBS. Dispense an appropriate volume of 1× lysis reagent (Passive Lysis Buffer) into each culture well. Scrape attached cells from the wells, and transfer the cell lysates into white 96-well plate (Corning Inc., Tewksbury, Mass.) for detection of the bioluminescence signal using luminometer plate reader (BioTek Instruments, Inc., Winooski, Vt.). Use a reagent injector to dispense 100 μL of Luciferase assay buffer with substrate and 100 μL of Stop & Glo Reagent. And perform a 2-second pre-measurement delay, followed by a 10-second measurement period for each reporter assay. Luciferase activity data were normalized to protein content.
(§4) To derive subclones of immortalized human white and brown progenitors with hUCP1-promoter-Luc/GFP reporter, limiting dilution of cells into 96-well plates was performed as previously described (Tchkonia, T., et al. Diabetes 55, 2571-2578, 2006). Briefly, cells were plated at 50 cells/96-well plate in DMEM/H containing 10% FBS. After 2 weeks, colonies were evident. Cells at approximately 80% confluence were trypsinized and further propagated in 48-well, then 12-well and finally 6-well plate. 152 clonal lines originated from neck superficial fat depot and 128 clonal lines from deep fat were selected for adipogenic potential after induction. The highly adipogenic clonal lines were selected for further analysis (67 clonal white fat progenitor lines; 90 clonal brown fat progenitor lines).

[2] = system: hBAT-SVF clones; experiment: as above
Procedure: as §1, §2, §3, §4

[3] = system: hWAT-SVF and hBAT-SVF progenitors; experiment: BMP pre-treatment of progenitors, Q-RT-PCR for UCP1 and PPARγ in mature adipocytes

B1: BMP7: Recombinant human BMP7, an inducer of brown adipogenesis (protein, UniProt P18075 293-431, looked up)
Bone morphogenetic protein 7: STGSKQRSQNRSKTPKNQEALRMANVAENSSSDQRQACKKHELYVSFRDLGWQDWIIAPEGYAAYYCEGECAFPLNSYMNATNHAIVQTLVHFINPETVPKPCCAPTQLNAISVLYFDDSSNVILKKYRNMVVRACGCH
[1]; Subject 1
  clones UCP1(+), BMP7 Resp(+): 0/32
  clones UCP1 (−), BMP7 Resp(+): 0/32
  clones UCP1(−), BMP7 Resp(−): 32/32
[1]; Subject 2
  clones UCP1(+), BMP7 Resp(+): 0/20
  clones UCP1 (−), BMP7 Resp(+): 0/20
  clones UCP1(−), BMP7 Resp(−): 20/20
[1]; Subject 3
  clones UCP1(+), BMP7 Resp(+): 1/12
  clones UCP1 (−), BMP7 Resp(+): 0/12
  clones UCP1(−), BMP7 Resp(−): 11/12
[1]; Subject 4
  clones UCP1(+), BMP7 Resp(+): 0/3
  clones UCP1 (−), BMP7 Resp(+): 0/3
  clones UCP1(−), BMP7 Resp(−): 3/3
[1]; highly adipogenic hWAT-SVF clones, response = more than 1.5-fold increase of luciferase activity
  clones that could respond to BMP7 pretreatment: 1%
[2]; hBAT-SVF clones from Subject 2 and Subject 3
  clones that could respond to BMP7 stimulation: more than 60%
[2]; hBAT-SVF clones, Subject 1
  clones UCP1(+), BMP7 Resp(+): 10/41
  clones UCP1(+), BMP7 Resp(−): 29/41
  clones UCP1(+), BMP7 Resp(−), percent: (71%)
  clones UCP1(−), BMP7 Resp(−): 2/41
[2]; hBAT-SVF clones, Subject 2
  clones UCP1(+), BMP7 Resp(+): 10/15
  clones UCP1(+), BMP7 Resp(+), percent: (67%)
  clones UCP1(+), BMP7 Resp(−): 5/15
  clones UCP1(−), BMP7 Resp(−): 0/15
[2]; hBAT-SVF clones, Subject 3
  clones UCP1(+), BMP7 Resp(+): 9/15
  clones UCP1(+), BMP7 Resp(+), percent: (60%)
  clones UCP1(+), BMP7 Resp(−): 3/15
  clones UCP1(−), BMP7 Resp(−): 3/15
[2]; hBAT-SVF clones, Subject 4
  clones UCP1(+), BMP7 Resp(+): 5/19
  clones UCP1(+), BMP7 Resp(−): 14/19
  clones UCP1(+), BMP7 Resp(−), percent: (74%)
  clones UCP1(−), BMP7 Resp(−): 0/19
[2]; hBAT-SVF clones, all subjects, response = more than 1.5-fold increase of luciferase activity
  clones that could be induced by BMP7 pretreatment: up to 37%
[2]; majority of the hBAT-SVF clones from Subject 1 and Subject 4
  response to BMP7 pretreatment: not responsive
[3]; hWAT-SVF from both subjects and hBAT-SVF from Subject 2, 3.3 nM BMP7 pre-exposure 6 days
  UCP1 expression in mature adipocytes: increased
[3]; mature brown adipocytes from Subject 2 only, BMP7 pretreatment
  PPARγ expression: augmented
